The record followed here is PMC7467671.

Common to all, as to assay: potentiometry
Data set [1] has as its target Asp1 (position 1, -----DEHGGG). The conditions noted are these: 298 K; 0.1 M NaClO4; none (4 mM HClO4, titrated with 0.1 M carbonate-free NaOH); metal-free peptide, largely unstructured.
Data set [2] concerns the target Asp8 (position 8, HGGGGDEH---). The conditions noted are these: 298 K; 0.1 M NaClO4; none (4 mM HClO4, titrated with 0.1 M carbonate-free NaOH); metal-free peptide, largely unstructured.
Data set [3] concerns the target Glu2 (position 2, ----DEHGGGG). The following applies: 298 K; 0.1 M NaClO4; none (4 mM HClO4, titrated with 0.1 M carbonate-free NaOH); metal-free peptide, largely unstructured.
Data set [4] deals with Glu9 (position 9, GGGGDEH----). The conditions noted are these: 298 K; 0.1 M NaClO4; none (4 mM HClO4, titrated with 0.1 M carbonate-free NaOH); metal-free peptide, largely unstructured.
For data set [5], the target named is His10 (position 10, GGGDEH-----). The following applies: 298 K, 0.1 M NaClO4.
For data set [6], the target named is His3 (position 3, ---DEHGGGGD). The conditions noted are these: 298 K, 0.1 M NaClO4.
Data set [7] deals with Nterm1 (position 1, -----DEHGGG). The conditions noted are these: 298 K, 0.1 M NaClO4.
In data set [8] the target is Asp10 (position 10, LAKGED-----). The following applies: 298 K; 0.1 M NaClO4; none (4 mM HClO4, titrated with 0.1 M carbonate-free NaOH); metal-free peptide, largely unstructured.
The target of data set [9] is Glu9 (position 9, VLAKGED----). The conditions noted are these: 298 K, 0.1 M NaClO4.
Data set [10] addresses His2 (position 2, ----THMVLAK). The conditions noted are these: 298 K, 0.1 M NaClO4.
Data set [11] has as its target Lys7 (position 7, HMVLAKGED--). The conditions noted are these: 298 K, 0.1 M NaClO4.
Data set [12] addresses Nterm1 (position 1, -----THMVLA). The following applies: 298 K, 0.1 M NaClO4.
The target in data set [13] is Asp5 (position 5, -…). The conditions noted are these: 298 K; 0.1 M NaClO4; none (4 mM HClO4, titrated with 0.1 M carbonate-free NaOH); metal-free peptide, largely unstructured.
Data set [14] has as its target Glu6 (position 6, …-). The conditions noted are these: 298 K; 0.1 M NaClO4; none (4 mM HClO4, titrated with 0.1 M carbonate-free NaOH); metal-free peptide, largely unstructured.
For data set [15], the target named is His7 (position 7, …--). The following applies: 298 K, 0.1 M NaClO4.
Data set [16] has as its target Lys9 (position 9, LDEHAKG----). The following applies: 298 K, 0.1 M NaClO4.
Data set [17] has as its target Nterm1 (position 1, -----TMVLDE). The following applies: 298 K, 0.1 M NaClO4.
Data set [18] concerns the target Asp1 (position 1, -----DEHGTA). The conditions noted are these: 298 K; 0.1 M NaClO4; none (4 mM HClO4, titrated with 0.1 M carbonate-free NaOH); metal-free peptide, largely unstructured.
For data set [19], the target named is Glu2 (position 2, ----DEHGTAV). The conditions noted are these: 298 K, 0.1 M NaClO4.
The target of data set [20] is His3 (position 3, ---DEHGTAVM). The following applies: 298 K, 0.1 M NaClO4.
Data set [21] concerns the target Lys10 (position 10, TAVMLK-----). The following applies: 298 K, 0.1 M NaClO4.
Data set [22] addresses Nterm1 (position 1, -----DEHGTA). The following applies: 298 K, 0.1 M NaClO4.
The target of data set [23] is Asp8 (position 8, AVMLKDEH---). The conditions noted are these: 298 K; 0.1 M NaClO4; none (4 mM HClO4, titrated with 0.1 M carbonate-free NaOH); metal-free peptide, largely unstructured.
Data set [24] addresses Glu9 (position 9, VMLKDEH----). The conditions noted are these: 298 K; 0.1 M NaClO4; none (4 mM HClO4, titrated with 0.1 M carbonate-free NaOH); metal-free peptide, largely unstructured.
Data set [25] addresses His10 (position 10, MLKDEH-----). The conditions noted are these: 298 K, 0.1 M NaClO4.
Data set [26] deals with Lys7 (position 7, …--). The conditions noted are these: 298 K, 0.1 M NaClO4.
The target in data set [27] is Nterm1 (position 1, -----GTAVML). The following applies: 298 K, 0.1 M NaClO4.
[28] abbreviates: none (4 mM HClO4, titrated with 0.1 M carbonate-free NaOH), metal-free peptide, largely unstructured.
The mark [29] stands for this setting: none (4 mM HClO4, titrated with NaOH), Cu(II)-bound, Cu(II):peptide 1:1.1, [Cu(II)]tot = 1 mM.
Setting [30] is: none (4 mM HClO4, titrated with NaOH), Mn(II)-bound, Mn(II):peptide 1:1.1, [Mn(II)]tot = 0.5 mM.

DEHGGGGDEH [Bis-DEH decapeptide (DEHGGGGDEH) (synthetic construct (Deinococcus radiodurans-inspired))]: the pKa (commonly the pH at which an ionisable group is half protonated) came out at 2.67 in data set [1]; 3.36 in data set [2]; 4.05 in data set [3]; 4.69 in data set [4]; 7.41 in data set [5] (setting [28]); 7.73 in data set [5] (setting [29]). In addition, the pKa in data set [5] (setting [30]) stood at 6.37; in data set [6] (setting [28]) it was 6.67; in data set [6] (setting [30]) it was 7.25; in data set [7] (setting [28]), 8.41; in [7] (setting [30]), 7.82.

Regarding THMVLAKGED [DP2 decapeptide (THMVLAKGED) (synthetic construct (scrambled DP1; Deinococcus radiodurans-inspired))], the pKa in data set [8] is 3.89; in [9] (setting [28]), 4.70; in data set [9] (setting [29]), 4.91; in data set [10] (setting [28]) it was 5.91; in [10] (setting [30]), 5.40; in data set [11] (setting [28]) it was 9.86(1). Also, the pKa in data set [11] (setting [29]) stood at 9.87; in [11] (setting [30]), 8.29; in data set [12] (setting [28]), 7.01; in data set [12] (setting [30]) it was 6.59.

Regarding TMVLDEHAKG [Mid-DEH decapeptide (TMVLDEHAKG) (synthetic construct (Deinococcus radiodurans-inspired))], the pKa is given as 3.55 in data set [13]; 4.06 in data set [14]; 6.29 in data set [15] (setting [28]); 6.42 in data set [15] (setting [30]); 10.52(1) in data set [16] (setting [28]); 11.20 in [16] (setting [29]). The pKa was 9.8 in data set [16] (setting [30]), 7.33 in [17] (setting [28]), 4.59 in data set [17] (setting [29]) and 7.21 in data set [17] (setting [30]).

As to DEHGTAVMLK, the pKa in data set [18] was 3.06; in data set [19] (setting [28]), 4.20; in data set [19] (setting [29]), 4.17; in [20] (setting [28]) it was 6.47; in [20] (setting [30]) it was 6.11; in [21] (setting [28]) it was 9.62(3). In addition, the pKa is on record as 9.00 in data set [21] (setting [29]), 8.96 in data set [21] (setting [30]), 7.85 in data set [22] (setting [28]) and 7.5 in data set [22] (setting [30]).

Consider GTAVMLKDEH [Term-DEH decapeptide (GTAVMLKDEH) (synthetic construct (Deinococcus radiodurans-inspired))], for which the pKa in data set [23] is reported as 3.46; in [24] it was 4.31; in data set [25] (setting [28]) it was 7.02; in data set [25] (setting [30]), 7.08; in data set [26] (setting [28]), 10.82(1); in data set [26] (setting [29]) it was 11.05. Further, the pKa in data set [27] (setting [28]) amounted to 8.16; in data set [27] (setting [29]), 5.34; in data set [27] (setting [30]) it was 7.79.
